The values that follow are results of earlier work, collected in paper PMC5074778.

For the data set, the target named is IL-6 receptor (Homo sapiens) (UniProt P08887).
UniProt P08887, sequence (P08887 20-365): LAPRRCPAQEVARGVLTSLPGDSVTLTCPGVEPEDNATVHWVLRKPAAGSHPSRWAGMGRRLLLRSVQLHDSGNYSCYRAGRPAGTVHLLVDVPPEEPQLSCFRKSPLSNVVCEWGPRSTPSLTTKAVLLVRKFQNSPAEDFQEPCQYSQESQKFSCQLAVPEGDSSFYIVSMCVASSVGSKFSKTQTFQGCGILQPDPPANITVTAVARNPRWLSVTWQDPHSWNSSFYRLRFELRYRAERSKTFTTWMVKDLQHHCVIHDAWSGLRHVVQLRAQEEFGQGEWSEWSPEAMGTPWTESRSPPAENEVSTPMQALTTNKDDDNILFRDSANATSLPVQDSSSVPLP

As to Tocilizumab, the dissociation constant (Kd) (as a rule, the free concentration of one partner at which half of the binding sites on the other are occupied at equilibrium, for simple one-to-one binding) was 2.5 nM.
